Test results reported in patent US20250215091A1, “Anti-GAL3 Antibodies and Compositions” (Les Laboratoires Servier, priority 2022, published 2025).

B1: B12: anti-Gal3 monoclonal antibody, IgG1 format; VH SEQ ID NO 54, VL SEQ ID NO 55 (antibody, V domains shown)
VH: EVQLVESGGSLVKPGGSLRLSCAASGFTFSNDDMNWVRQAPGKGLEWISSIDGSSRSIYYADFVKGRFTISRDNAKNSLYLQMNSLRAEDTAVYYCVRSSGYSGGGMDVWGRGTLVTVSS
VL: QSVLTQPASVSGSPGQSITISCAGTSSDVGGSYNVAWYQQHPGKAPKLMIYSDSYRPSGVSNRFSGSKSGNTASLTISGLQAEDEADYYCSSYTSNSARVFGGGTKLEIK
modifications: IgG1 constant region
B2: E12: anti-Gal3 monoclonal antibody, IgG1 format; VH SEQ ID NO 56, VL SEQ ID NO 57 (antibody, V domains shown)
VH: EVQLVESGGSLVKPGGSLRLSCAASGFTFSNYAMNWVRQAPGKGLEWISSIYGSSRSIYYADFVKGRFTISRDNAKNSLYLQMNSLRAEDTAVYYCVRSNNAGMDVWGRGTLVTVSS
VL: QSVLTQPASVSGSPGQSITISCAGTSSDVGGYYDVSWYQQHPGKAPKLMIYYDSYRPSGVSNRFSGSKSGNTASLTISGLQAEDEADYYCSSYTSYSTRVFGGGTKLEIK
B3: H10-G1: germline framework variant of H10; Table 3 lists H10-G with VH SEQ ID NO 90, VL SEQ ID NO 91 (antibody, V domains shown)
VH: EVQLVESGGGLVKPGGSLRLSCAASGFTFSNYYMNWVRQAPGKGLEWISYINGASRDISYADSVKGRFTISRDNAKNSLYLQMNSLRAEDTAVYYCVRSSYGYSNYGSGMDVWGRGTLVTVSS
VL: QSALTQPASVSGSPGQSITISCTGTSSDVGGSYNVAWYQQHPGKAPKLMIYNDANRPSGVSNRFSGSKSGNTASLTISGLQAEDEADYYCSSNTADSTRVFGGGTKLEIK

Legend:
[1] = molecular target: T1, Hu-Gal3-FL (Homo sapiens, UniProt P17931); experiment: ELISA dose-response EC50 on human Gal3; details: ELISA binding on Hu-Gal3-FL
T1 construct: made in house
Experimental: (§1) To determine the half maximal effective concentration (EC50) of the antibodies, ELISA dose-response experiments were performed on Hu-Gal3-FL and on m-Gal3-FL.
(§2) Hu-Gal3-FL and m-Gal3-FL were immobilized at 3 μg/mL through their His-tag on functionalized microplates as before. A 3.3-fold serial dilution was carried-out with the purified IgGs, added to the wells containing immobilized Hu-Gal3-FL or m-Gal3-FL and detected with an anti-Fab.HRP antibody.
(§3) Human/mouse Gal3 EC50 ratio were estimated according to EC50 values (sigmoidal dose-response equation: Y=Bottom+X*(Top−Bottom)/(EC50+X)), a low ratio indicating a high cross-reactivity.

[2] = tested on: human Gal3 full-length (Hu-Gal3-FL) and CRD domain (Hu-Gal3-CRD); experiment: IgG cross-reactivity ELISA on human Gal3; assay type: binding; details: purified IgGs 15-20 μg/mL; FIG. 3
Experimental: (§4) Anti-Gal3 antibodies human/mouse cross-reactivity was tested by ELISA on human Gal3 full-length (Hu-Gal3-FL) and CRD domain (Hu-Gal3-CRD), and on murine Gal3 (m-Gal3-FL).
(§5) Hu-Gal3-FL, Hu-Gal3-CRD and m-Gal3-FL were immobilized at 3 μg/mL via their histidine tag on functionalized microplates. Purified IgGs were added into the wells (15-20 μg/mL final concentration) and detected with an anti-Fab.HRP antibody. A control rabbit antibody directed against Hu-Gal3 (Abcam ab53082 reference) was used at 5 μg/mL as antigen-coating positive control and detected with an anti-rabbit.HRP secondary antibody (7074S-Cell Signaling reference).

[3] = molecular target: T2, murine Gal3 (m-Gal3-FL) (Mus musculus, UniProt P16110); experiment: IgG cross-reactivity ELISA on murine Gal3; assay type: binding; details: purified IgGs 15-20 μg/mL; FIG. 3
T2 construct: Determination of Kd values on human and mouse full-length Gal3; purchased Novalix
Experimental: as §4, §5

[4] = molecular target: T3, m-Gal3-FL (Mus musculus, UniProt P16110); experiment: ELISA dose-response EC50 on mouse Gal3; details: ELISA binding on m-Gal3-FL
T3 construct: made in house
Experimental: as §1, §2, §3

[5] = molecular target: T4, recombinant human Gal3 full-length (Hu-Gal3-FL) (Homo sapiens, UniProt P17931); experiment: SPR (Biacore T-200) affinity on human full-length Gal3; assay type: binding; details: full-length Gal3, 25° C.
T4 construct: recombinant human Gal3 full-length (Hu-Gal3-FL); purchased Novalix
Experimental: The interaction of the anti-Gal3 antibody with recombinant human Gal3 full-length (Hu-Gal3-FL) and murine Gal3 (m-Gal3-FL) (from Novalix) was monitored by surface plasmon resonance (SPR) detection using a Biacore T-200 instrument.
Binding studies were performed in freshly prepared, filtered and degassed running buffer containing 10 mM HEPES, 150 mM NaCl, and 0.05% P20 (HBS-P, Cytiva Life Sciences) at 25° C. Before performing the binding studies, the CM5 sensor surface immobilized with anti-human Fc mAb was equilibrated with HBS-P by priming the instrument at least three to four times.
The CM5 sensor surface was first immobilized with an anti-human Fc mAb using a standard protocol. The entire sensor surface was first activated by injecting a 1:1 (v/v) mixture of 400 mM EDC and 100 mM NHS at a flow rate of 10 μL/minute for 7 minutes. Monoclonal anti-human Fc antibody (Millipore AP113), 25 μg/mL in Na acetate pH5, 360 s were flowed at 10 μL/minute to reach 10000 RU on both flow cells followed by the injection of 1 M ethanolamine, pH8.5 for 7 minutes at a flow rate of 10 μL/minute. During the entire immobilization procedure, HBS-P was used as the running buffer.
Antibody samples were prepared at 5 μg/ml and were injected for 30 seconds at 10 μL/minute. In general, 400 to 680 resonance units of antibodies were captured on the chip.

T2 sequence (P16110 whole entry): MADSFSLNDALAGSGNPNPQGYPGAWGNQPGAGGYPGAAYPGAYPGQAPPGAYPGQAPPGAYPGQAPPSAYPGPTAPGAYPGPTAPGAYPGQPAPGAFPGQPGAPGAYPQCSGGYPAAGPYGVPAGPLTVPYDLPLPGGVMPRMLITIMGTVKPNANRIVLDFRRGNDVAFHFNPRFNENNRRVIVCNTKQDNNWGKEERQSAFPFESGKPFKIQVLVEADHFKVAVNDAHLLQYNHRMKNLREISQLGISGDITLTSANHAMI
T3 sequence (P16110 whole entry): as above
T1 sequence (P17931 whole entry): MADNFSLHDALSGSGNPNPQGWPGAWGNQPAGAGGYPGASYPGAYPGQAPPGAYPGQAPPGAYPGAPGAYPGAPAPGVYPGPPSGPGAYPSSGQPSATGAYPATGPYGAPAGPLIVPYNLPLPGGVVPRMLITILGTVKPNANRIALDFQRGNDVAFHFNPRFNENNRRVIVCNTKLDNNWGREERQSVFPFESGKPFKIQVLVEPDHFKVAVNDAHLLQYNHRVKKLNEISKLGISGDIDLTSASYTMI
T4 sequence (P17931 whole entry): as above
Chain of human Gal3 full-length (Hu-Gal3-FL) and CRD domain (Hu-Gal3-CRD) (P17931 118-250 limits assumed): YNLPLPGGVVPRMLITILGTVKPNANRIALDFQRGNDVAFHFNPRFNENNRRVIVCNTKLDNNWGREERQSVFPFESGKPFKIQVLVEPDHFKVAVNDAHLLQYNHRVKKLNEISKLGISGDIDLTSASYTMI

Row | Molecule | hGal3 EC50 [1] | IgG binding to human Gal3 (Hu-Gal3-FL, Hu-Gal3-CRD) by ELISA [2] | IgG binding to murine Gal3 (m-Gal3-FL) by ELISA [3] | mGal3 EC50 [4] | Kd [5] [nM]
1 | B1 | too high to be determined | Lower binding signals | Lower binding signals | too high to be determined | 
2 | B2 | too high to be determined |  | much lower on the m-Gal3 than on the Hu-Gal3-FL and Hu-Gal3-CRD | too high to be determined | 
3 | B3 |  |  |  |  | 4.9
